Reference: publication PMC10663500, “High-throughput analysis system of interaction kinetics for data-driven antibody design” (Scientific Reports, 2023)
Positions count from the first letter of the chain named.

B1: toripalimab Fab (wild-type) (Fab, V domains shown)
VH: QGQLVQSGAEVKKPGASVKVSCKASGYTFTDYEMHWVRQAPIHGLEWIGVIESETGGTAYNQKFKGRVTITADKSTSTAYMELSSLRSEDTAVYYCAREGITTVATTYYWYFDVWGQGTTVTVSS
VL: DVVMTQSPLSLPVTLGQPASISCRSSQSIVHSNGNTYLEWYLQKPGQSPQLLIYKVSNRFSGVPDRFSGSGSGTDFTLKISRVEAEDVGVYYCFQGSHVPLTFGQGTKLEIK
notes: toripalimab Fab heavy chain (VH-CH1); toripalimab Fab light chain (VL-CL); Residue numbers count consecutively from residue 1 of each chain; also called anti-hPD-1 antibody toripalimab; source: Brevibacillus, secreted into culture supernatant, ammonium sulfate precipitate (not further purified); not shown: 6xHis, C-terminal, kept; 6xHN, C-terminal, kept
B2: toripalimab Fab L.V99G (Fab, V domains shown)
VH: B1 VH
VL: B1 VL with V99G
notes: as the heavy chain of m1; as the light chain of m1, with the stated change; source: Brevibacillus, secreted into culture supernatant, ammonium sulfate precipitate (not further purified); not shown: 6xHis, C-terminal, kept; 6xHN, C-terminal, kept
B3: toripalimab Fab L.P100H (Fab, V domains shown)
VH: B1 VH
VL: B1 VL with P100H
notes: as for B2
B4: toripalimab Fab L.L101S (Fab, V domains shown)
VH: B1 VH
VL: B1 VL with L101S
notes: as the heavy chain of Sm3; light chain of Sm3 with this change; numbers count from the chain's first residue; source: Brevibacillus, culture supernatant (ammonium sulfate precipitate); not shown: 6xHis, C-terminal, kept; 6xHN, C-terminal, kept
B5: toripalimab Fab L.L101I (Fab, V domains shown)
VH: B1 VH
VL: B1 VL with L101I
notes: as for B4
B6: toripalimab Fab L.L101K (Fab, V domains shown)
VH: B1 VH
VL: B1 VL with L101K
notes: as for B4
B7: toripalimab Fab H.E54A (Fab, V domains shown)
VH: B1 VH with E54A
VL: B1 VL
notes: heavy chain of Sm3 with this change; numbers count from the chain's first residue; as the light chain of Sm3; source: Brevibacillus, culture supernatant (ammonium sulfate precipitate); not shown: 6xHis, C-terminal, kept; 6xHN, C-terminal, kept
B8: toripalimab Fab L.L101Y (Fab, V domains shown)
VH: B1 VH
VL: B1 VL with L101Y
notes: as for B4
B9: toripalimab Fab L.P100Y (Fab, V domains shown)
VH: B1 VH
VL: B1 VL with P100Y
notes: as for B4
B10: toripalimab Fab L.L101N (Fab, V domains shown)
VH: B1 VH
VL: B1 VL with L101N
notes: as for B4
B11: toripalimab Fab L.L101Q (Fab, V domains shown)
VH: B1 VH
VL: B1 VL with L101Q
notes: as for B4
B12: toripalimab Fab L.T102A (Fab, V domains shown)
VH: B1 VH
VL: B1 VL with T102A
notes: as for B4
B13: toripalimab Fab H.S53Y (Fab, V domains shown)
VH: B1 VH with S53Y
VL: B1 VL
notes: as for B7
B14: toripalimab Fab L.L101A (Fab, V domains shown)
VH: B1 VH
VL: B1 VL with L101A
notes: as for B4
B15: toripalimab Fab L.T102Y (Fab, V domains shown)
VH: B1 VH
VL: B1 VL with T102Y
notes: as for B4
B16: toripalimab Fab L.L101G (Fab, V domains shown)
VH: B1 VH
VL: B1 VL with L101G
notes: as for B4
B17: toripalimab Fab L.L101V (Fab, V domains shown)
VH: B1 VH
VL: B1 VL with L101V
notes: as for B4
B18: toripalimab Fab L.L101F (Fab, V domains shown)
VH: B1 VH
VL: B1 VL with L101F
notes: as for B4
B19: toripalimab Fab L.L101M (Fab, V domains shown)
VH: B1 VH
VL: B1 VL with L101M
notes: as for B4
B20: toripalimab Fab L.L101T (Fab, V domains shown)
VH: B1 VH
VL: B1 VL with L101T
notes: as for B4
B21: toripalimab Fab L.L101D (Fab, V domains shown)
VH: B1 VH
VL: B1 VL with L101D
notes: as for B4
B22: toripalimab Fab L.L101E (Fab, V domains shown)
VH: B1 VH
VL: B1 VL with L101E
notes: as for B4

molecular target: T1, human programmed cell death protein 1 C93S (aa 24-167) (Homo sapiens, UniProt Q15116, C93S); test: SPR; BreviA on Carterra LSA: Fab from ammonium sulfate precipitate of Brevibacillus supernatant immobilised on NiHC200M sensor; hPD-1 (1-1024 nM) or mPD-1-Fc (4-1024 nM) as analyte, fourfold dilution series, no regeneration; HBS-EP pH 7.4, 25 °C; medians of spots; settings: one partner purified
T1 construct: residues of the TEV site may be left after cleavage; also called hPD-1; human PD-1; source: Expi293F, transfected, purified (Protein A, TEV cleavage of Fc, Protein A + Ni-Sepharose, SEC; monomer fractions)
T1 sequence (Q15116 24-167 C93S): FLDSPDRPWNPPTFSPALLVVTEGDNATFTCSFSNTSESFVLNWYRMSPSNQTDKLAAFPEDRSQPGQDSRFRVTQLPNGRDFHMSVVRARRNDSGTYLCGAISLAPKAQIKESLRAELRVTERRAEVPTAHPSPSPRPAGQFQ

Q: B1 was tested. Which koff did it give?
A: < 1e-05 s⁻¹

molecular target: T2, mouse programmed cell death protein 1 C60S (aa 25-167) Fc fusion protein (Mus musculus, UniProt Q02242, stabilised); test: as above; settings: one partner purified
T2 construct: the Fc was not cleaved; also called mPD-1-Fc; mPD-1 Fc fusion protein; source: Expi293F, transfected, purified (Protein A, SEC; dimeric fraction)

Q: Which “fold increase in affinity against the wild type” value does the source give for B2 here?
A: > 100 fold

Q: How did the “fold increase in affinity against the wild type” value turn out when B3 was run?
A: > 100 fold

molecular target: T3, human programmed cell death protein 1 (hPD-1) C93S (aa 24-167) (Homo sapiens, UniProt Q15116, C93S); test: SPR; Carterra LSA; Fab from the ammonium sulfate precipitate of the culture supernatant immobilised on a NiHC200M chip; hPD-1 (1-1024 nM) or mPD-1-Fc (4-1024 nM) as analyte, fourfold dilution series, no regeneration; HBS-EP pH 7.4, 25 °C; medians over the spots of a construct, KD = koff/kon; settings: one partner purified
T3 construct: made as a fusion with a TEV site and human Fc; the Fc was cut off with TEV protease; source: Expi293F, purified (Protein A, TEV cleavage of Fc, SEC; monomer fractions); not shown: Fc (human), C-terminal, cleaved
Method in brief: (§1)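 Fabs, ammonium sulfate-precipitated from Brevibacillus supernatants and redissolved in HBS-EP, were captured in duplicate on a NiHC200M chip on a Carterra LSA at 25 °C. Fourfold series of human PD-1 (1–1024 nM) or mouse PD-1-Fc (4–1024 nM) were run without regeneration, with association for 10 min and dissociation for 5 min. Rates were fitted with the kdka model, choosing the better of slow- or fast-dissociation settings, and unconfirmed binders were given kon 10^3 […] and koff 10^−2 s^−1. The dissociation constant KD is koff/kon based on per-construct medians.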

T3 sequence (Q15116 24-167 C93S): as above

Q: Which Kd does the source give for B4 here?
A: 4.13 nM

Q: And the koff?
A: 2.42e-05 s⁻¹

Q: And the kon?
A: 5870 M⁻¹ s⁻¹

Q: For B5, which Kd is on record?
A: < 1.55 nM

Q: And the koff?
A: < 1e-05 s⁻¹

Q: What about the kon of the same binder?
A: 6430 M⁻¹ s⁻¹

Q: B6 was tested. Which Kd did it give?
A: 492 nM

Q: What about the koff of the same binder?
A: 0.00276 s⁻¹

Q: And the kon?
A: 5600 M⁻¹ s⁻¹

Q: With B7 as the binder, how does the Kd read?
A: 1.23 nM

Q: And the koff?
A: 2.52e-05 s⁻¹

Q: And the kon?
A: 20400 M⁻¹ s⁻¹

Q: Which Kd does the source give for B8 here?
A: < 1.18 nM

Q: What about the koff of the same binder?
A: < 1e-05 s⁻¹

Q: What about the kon of the same binder?
A: 8500 M⁻¹ s⁻¹

Q: For B9, which Kd is on record?
A: < 0.355 nM

Q: And the koff?
A: < 1e-05 s⁻¹

Q: And the kon?
A: 28200 M⁻¹ s⁻¹

Q: B10 was tested. Which Kd did it give?
A: < 1.23 nM

Q: And the koff?
A: < 1e-05 s⁻¹

Q: What about the kon of the same binder?
A: 8160 M⁻¹ s⁻¹

Q: B11 was tested. Which Kd did it give?
A: 2.78 nM

Q: What about the koff of the same binder?
A: 2.5e-05 s⁻¹

Q: What about the kon of the same binder?
A: 8990 M⁻¹ s⁻¹

Q: Which Kd does the source give for B12 here?
A: < 0.809 nM

Q: And the koff?
A: < 1e-05 s⁻¹

Q: And the kon?
A: 12400 M⁻¹ s⁻¹

Q: What does the source list for B13?
A: Kd: < 1.18 nM; koff: < 1e-05 s⁻¹; kon: 8440 M⁻¹ s⁻¹

Q: For B14, which Kd is on record?
A: < 1.61 nM

Q: And the koff?
A: < 1e-05 s⁻¹

Q: And the kon?
A: 6210 M⁻¹ s⁻¹

Q: With B15 as the binder, how does the Kd read?
A: < 0.441 nM

Q: And the koff?
A: < 1e-05 s⁻¹

Q: And the kon?
A: 22700 M⁻¹ s⁻¹

Q: What does the source list for B16?
A: Kd: < 1.95 nM; koff: < 1e-05 s⁻¹; kon: 5120 M⁻¹ s⁻¹

Q: Which Kd does the source give for B17 here?
A: 2.41 nM

Q: What about the koff of the same binder?
A: 1.35e-05 s⁻¹

Q: What about the kon of the same binder?
A: 5600 M⁻¹ s⁻¹

Q: B18 was tested. Which Kd did it give?
A: 7.96 nM

Q: And the koff?
A: 0.000141 s⁻¹

Q: And the kon?
A: 17700 M⁻¹ s⁻¹

Q: For B19, which Kd is on record?
A: < 1.08 nM

Q: What about the koff of the same binder?
A: < 1e-05 s⁻¹

Q: What about the kon of the same binder?
A: 9290 M⁻¹ s⁻¹

Q: B20 was tested. Which Kd did it give?
A: 5.05 nM

Q: And the koff?
A: 3.03e-05 s⁻¹

Q: And the kon?
A: 6000 M⁻¹ s⁻¹

Q: How did the Kd turn out when B21 was run?
A: < 1.66 nM

Q: What about the koff of the same binder?
A: < 1e-05 s⁻¹

Q: And the kon?
A: 6020 M⁻¹ s⁻¹

Q: With B22 as the binder, how does the Kd read?
A: 13.6 nM

Q: And the koff?
A: 0.000124 s⁻¹

Q: What about the kon of the same binder?
A: 9060 M⁻¹ s⁻¹

molecular target: T4, mouse programmed cell death protein 1 Fc fusion protein (mPD-1-Fc), mPD-1 C60S (aa 25-167) (Mus musculus, UniProt Q02242, stabilised); test: as above; settings: one partner purified
T4 construct: not cleaved; source: Expi293F, purified (Protein A, SEC; dimeric fraction); not shown: Fc (human), C-terminal, kept
Method in brief: as §1

Q: What does the source list for B4?
A: Kd: 48.2 nM; koff: 0.000659 s⁻¹; kon: 13700 M⁻¹ s⁻¹

Q: How did the Kd turn out when B5 was run?
A: 34.3 nM

Q: And the koff?
A: 0.00056 s⁻¹

Q: And the kon?
A: 16300 M⁻¹ s⁻¹

Q: Which Kd does the source give for B6 here?
A: 606 nM

Q: What about the koff of the same binder?
A: 0.0212 s⁻¹

Q: And the kon?
A: 35000 M⁻¹ s⁻¹

Q: B7 was tested. Which Kd did it give?
A: 202 nM

Q: What about the koff of the same binder?
A: 0.00772 s⁻¹

Q: And the kon?
A: 38300 M⁻¹ s⁻¹

Q: What does the source list for B8?
A: Kd: 125 nM; koff: 0.00356 s⁻¹; kon: 28400 M⁻¹ s⁻¹

Q: With B9 as the binder, how does the Kd read?
A: 1.79 nM

Q: What about the koff of the same binder?
A: 3.62e-05 s⁻¹

Q: What about the kon of the same binder?
A: 20200 M⁻¹ s⁻¹

Q: Which results are given for B10?
A: Kd: 134 nM; koff: 0.00447 s⁻¹; kon: 33300 M⁻¹ s⁻¹

Q: Which results are given for B11?
A: Kd: 265 nM; koff: 0.0143 s⁻¹; kon: 54000 M⁻¹ s⁻¹

Q: How did the Kd turn out when B12 was run?
A: 115 nM

Q: And the koff?
A: 0.00395 s⁻¹

Q: And the kon?
A: 34200 M⁻¹ s⁻¹

Q: What does the source list for B13?
A: Kd: 187 nM; koff: 0.00628 s⁻¹; kon: 33500 M⁻¹ s⁻¹

Q: Which Kd does the source give for B14 here?
A: 26.6 nM

Q: What about the koff of the same binder?
A: 0.000225 s⁻¹

Q: What about the kon of the same binder?
A: 8470 M⁻¹ s⁻¹

Q: How did the Kd turn out when B15 was run?
A: 78.4 nM

Q: And the koff?
A: 0.00282 s⁻¹

Q: And the kon?
A: 36000 M⁻¹ s⁻¹

Q: Which results are given for B16?
A: Kd: 40.1 nM; koff: 0.000405 s⁻¹; kon: 10100 M⁻¹ s⁻¹

Q: For B17, which Kd is on record?
A: 90.5 nM

Q: And the koff?
A: 0.00146 s⁻¹

Q: What about the kon of the same binder?
A: 16100 M⁻¹ s⁻¹

Q: With B18 as the binder, how does the Kd read?
A: 1020 nM

Q: What about the koff of the same binder?
A: 0.0615 s⁻¹

Q: What about the kon of the same binder?
A: 60300 M⁻¹ s⁻¹

Q: B19 was tested. Which Kd did it give?
A: 24.5 nM

Q: And the koff?
A: 0.000673 s⁻¹

Q: And the kon?
A: 27500 M⁻¹ s⁻¹

Q: For B20, which Kd is on record?
A: 116 nM

Q: And the koff?
A: 0.00235 s⁻¹

Q: What about the kon of the same binder?
A: 20400 M⁻¹ s⁻¹

Q: Which Kd does the source give for B21 here?
A: 172 nM

Q: What about the koff of the same binder?
A: 0.0046 s⁻¹

Q: And the kon?
A: 26800 M⁻¹ s⁻¹

Q: What does the source list for B22?
A: Kd: 95.6 nM; koff: 0.00392 s⁻¹; kon: 41000 M⁻¹ s⁻¹
